Assay results from publication PMC4117528.

Legend:
[1] = SEC; analytical Superdex 200 calibrated with globular proteins; 25 µM protein; 20 mM sodium phosphate, 50 mM NaCl pH 7.3, 1 mM DTT
[2] = target: PhaP from Azotobacter sp. FA8 (Azotobacter sp. FA8); test: SEC-MALS; 90° static light scattering (PD2010) with differential refractometer in tandem with analytical Superdex 200; 25 µM protein; 20 mM sodium phosphate pH 7.4, 150 mM NaCl, 1 mM DTT; average molecular weight of the oligomer

Row | Substance | apparent number of monomers (SEC, globular calibration) [1] | stoichiometry N [2]
1 | PhaP from Azotobacter sp. FA8 | This molecular weight corresponds to 9 monomers | 
2 | PhaP from Azotobacter sp. FA8 (natural protein) |  | 4
